Target: T1, HTkC (Thermococcus kodakarensis, UniProt Q5JDW7)
T1 sequence: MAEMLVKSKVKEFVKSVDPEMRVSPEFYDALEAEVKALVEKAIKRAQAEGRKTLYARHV
Assay: X-ray crystallography; 1.95 A; EMSA: 50 mM Tris-HCl pH 7.0, 75 mM KCl, 14.5% glycerol, room temperature 30 min, gel in 0.5x TBE at 4 C; TPM: 50 mM Tris pH 7.0, 75 mM KCl
Settings: protein: recombinant; chain copies: 4; blunt

B1: 30 bp-GC50 (dsDNA)
DNA 1: TTAAAGCCCGTTAAAGCCCGTTAAAGCCCG
DNA 2: CGGGCTTTAACGGGCTTTAACGGGCTTTAA
B1: binds.

From paper doi:10.64898/2025.12.06.692711, “Archaeal histone HTkC hypercompacts DNA”
